B1: S1m aptamer (60 nt) (structured_RNA)
RNA: AUGCGGCCGCCGACCAGAAUCAUGCAAGUGCGUAAGAUAGUCGCGGGUCGGCGGCCGCAU

Biological target: streptavidin (SA) (UniProt P22629 25-183)
Experiment: EMSA

Chain of streptavidin (SA) (P22629 25-183): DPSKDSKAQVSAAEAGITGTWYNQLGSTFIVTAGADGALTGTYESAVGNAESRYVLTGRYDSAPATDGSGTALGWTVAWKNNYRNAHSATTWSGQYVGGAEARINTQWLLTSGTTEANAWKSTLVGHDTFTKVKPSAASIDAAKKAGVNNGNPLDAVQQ

| Binder | Kd |
| --- | --- |
| ACCGACCAGAAUCAUGCAAGUGCGUAAGAUAGUCGCGGGCCGGG (structured_RNA) [S1 aptamer (44 nt)] | 59 nM |
| B1 | 29 nM |
